For 35 variants, abundance fitness results are on record in the Human Domainome abundance scans (Beltran et al. 2025).

The chains are these.
B1: POU domain, class 3, transcription factor 2, residues 262 to 338; numbered along this chain, P20265 (parent)
chain: EDTPTSDDLEQFAKQFKQRRIKLGFTQADVGLALGTLYGNVFSQTTICRFEALQLSFKNMCKLKPLLNKWLEEADSS

± gives the uncertainty stated by the source.

This data set covers variants of B1. As to the kind of experiment: abundance fitness (aPCA) (normalised: wild type 0, dead -1); higher = more abundant; growth selection in yeast, the domain comes from the species named. The following applies: Homo sapiens.
As to EDTPTSDDLEQFAKQFKQRRIKLGFTQADVGLALGTLYGNVFSQTTICRFEALQLSFKNMCYLKPLLNKWLEEADSS [K62Y], the abundance fitness was -0.263 ± 0.07. As to EDTPTSDDLEQFAKQFKQRRIKLGFTQADVGLALGTLYGNVFSQTTICRFEALQLSFKNMCPLKPLLNKWLEEADSS [K62P], the abundance fitness is -0.99 ± 0.15.

Regarding EDTPTSDDLEQFAKQFKQRRIKLGFTQADVGLALGTLYGNVFSQTTICRFEALQLSFKNMCLLKPLLNKWLEEADSS [K62L], the abundance fitness is -0.007 ± 0.036.

Turning to EDTPTSDDLEQFAKQFKQRRIKLGFTQADVGLALGTLYGNVFSQTTICRFEALQLSFKNMCALKPLLNKWLEEADSS [K62A], the abundance fitness was -0.033 ± 0.032. Regarding EDTPTSDDLEQFAKQFKQRRIKLGFTQADVGLALGTLYGNVFSQTTICRFEALQLSFKNMCGLKPLLNKWLEEADSS [K62G], the abundance fitness is -0.189 ± 0.027. With EDTPTSDDLEQFAKQFKQRRIKLGFTQADVGLALGTLYGNVFSQTTICRFEALQLSFKNMCNLKPLLNKWLEEADSS [K62N], the abundance fitness is -0.151 ± 0.068. For the variant EDTPTSDDLEQFAKQFKQRRIKLGFTQADVGLALGTLYGNVFSQTTICRFEALQLSFKNMCELKPLLNKWLEEADSS [K62E], the abundance fitness was determined as 0.006 ± 0.038.

With EDTPTSDDLEQFAKQFKQRRIKLGFTQADVGLALGTLYGNVFSQTTICRFEALQLSFKNMCDLKPLLNKWLEEADSS [K62D], the abundance fitness is -0.045 ± 0.053.

Consider EDTPTSDDLEQFAKQFKQRRIKLGFTQADVGLALGTLYGNVFSQTTICRFEALQLSFKNMCMLKPLLNKWLEEADSS [K62M], for which the abundance fitness was determined as 0.02 ± 0.048. In the case of EDTPTSDDLEQFAKQFKQRRIKLGFTQADVGLALGTLYGNVFSQTTICRFEALQLSFKNMCHLKPLLNKWLEEADSS [K62H], the abundance fitness was -0.156 ± 0.06. Next, EDTPTSDDLEQFAKQFKQRRIKLGFTQADVGLALGTLYGNVFSQTTICRFEALQLSFKNMCTLKPLLNKWLEEADSS [K62T]: -0.059 ± 0.039. As to EDTPTSDDLEQFAKQFKQRRIKLGFTQADVGLALGTLYGNVFSQTTICRFEALQLSFKNMCWLKPLLNKWLEEADSS [K62W], the abundance fitness is -0.172 ± 0.038.

Take EDTPTSDDLEQFAKQFKQRRIKLGFTQADVGLALGTLYGNVFSQTTICRFEALQLSFKNMCCLKPLLNKWLEEADSS [K62C]: the abundance fitness was -0.25 ± 0.053.

In the case of EDTPTSDDLEQFAKQFKQRRIKLGFTQADVGLALGTLYGNVFSQTTICRFEALQLSFKNMCSLKPLLNKWLEEADSS [K62S], the abundance fitness is -0.055 ± 0.032. The figure for EDTPTSDDLEQFAKQFKQRRIKLGFTQADVGLALGTLYGNVFSQTTICRFEALQLSFKNMCVLKPLLNKWLEEADSS [K62V] is -0.089 ± 0.031; for EDTPTSDDLEQFAKQFKQRRIKLGFTQADVGLALGTLYGNVFSQTTICRFEALQLSFKNMCILKPLLNKWLEEADSS [K62I] it is -0.045 ± 0.077; for EDTPTSDDLEQFAKQFKQRRIKLGFTQADVGLALGTLYGNVFSQTTICRFEALQLSFKNMCFLKPLLNKWLEEADSS [K62F] it is -0.126 ± 0.086. The figure for EDTPTSDDLEQFAKQFKQRRIKLGFTQADVGLALGTLYGNVFSQTTICRFEALQLSFKNMWKLKPLLNKWLEEADSS [C61W] is -0.158 ± 0.03; for EDTPTSDDLEQFAKQFKQRRIKLGFTQADVGLALGTLYGNVFSQTTICRFEALQLSFKNMGKLKPLLNKWLEEADSS [C61G] it is -0.278 ± 0.027. Next, EDTPTSDDLEQFAKQFKQRRIKLGFTQADVGLALGTLYGNVFSQTTICRFEALQLSFKNMTKLKPLLNKWLEEADSS [C61T]: -0.182 ± 0.045; EDTPTSDDLEQFAKQFKQRRIKLGFTQADVGLALGTLYGNVFSQTTICRFEALQLSFKNMMKLKPLLNKWLEEADSS [C61M]: -0.088 ± 0.037; EDTPTSDDLEQFAKQFKQRRIKLGFTQADVGLALGTLYGNVFSQTTICRFEALQLSFKNMPKLKPLLNKWLEEADSS [C61P]: -0.779 ± 0.086. As for EDTPTSDDLEQFAKQFKQRRIKLGFTQADVGLALGTLYGNVFSQTTICRFEALQLSFKNMEKLKPLLNKWLEEADSS [C61E], the abundance fitness was -0.147 ± 0.037.

EDTPTSDDLEQFAKQFKQRRIKLGFTQADVGLALGTLYGNVFSQTTICRFEALQLSFKNMLKLKPLLNKWLEEADSS [C61L]: the abundance fitness was -0.001 ± 0.029. Next, EDTPTSDDLEQFAKQFKQRRIKLGFTQADVGLALGTLYGNVFSQTTICRFEALQLSFKNMRKLKPLLNKWLEEADSS [C61R]: -0.025 ± 0.028; EDTPTSDDLEQFAKQFKQRRIKLGFTQADVGLALGTLYGNVFSQTTICRFEALQLSFKNMSKLKPLLNKWLEEADSS [C61S]: -0.165 ± 0.034; EDTPTSDDLEQFAKQFKQRRIKLGFTQADVGLALGTLYGNVFSQTTICRFEALQLSFKNMQKLKPLLNKWLEEADSS [C61Q]: -0.112 ± 0.048.

EDTPTSDDLEQFAKQFKQRRIKLGFTQADVGLALGTLYGNVFSQTTICRFEALQLSFKNMVKLKPLLNKWLEEADSS [C61V]: the abundance fitness is -0.035 ± 0.03.

For the variant EDTPTSDDLEQFAKQFKQRRIKLGFTQADVGLALGTLYGNVFSQTTICRFEALQLSFKNMAKLKPLLNKWLEEADSS [C61A], the abundance fitness was -0.101 ± 0.031. In the case of EDTPTSDDLEQFAKQFKQRRIKLGFTQADVGLALGTLYGNVFSQTTICRFEALQLSFKNMYKLKPLLNKWLEEADSS [C61Y], the abundance fitness is -0.252 ± 0.077.

In the case of EDTPTSDDLEQFAKQFKQRRIKLGFTQADVGLALGTLYGNVFSQTTICRFEALQLSFKNMDKLKPLLNKWLEEADSS [C61D], the abundance fitness is -0.291 ± 0.075. The figure for EDTPTSDDLEQFAKQFKQRRIKLGFTQADVGLALGTLYGNVFSQTTICRFEALQLSFKNMFKLKPLLNKWLEEADSS [C61F] is -0.274 ± 0.053; for EDTPTSDDLEQFAKQFKQRRIKLGFTQADVGLALGTLYGNVFSQTTICRFEALQLSFKNMKKLKPLLNKWLEEADSS [C61K] it is -0.056 ± 0.053; for EDTPTSDDLEQFAKQFKQRRIKLGFTQADVGLALGTLYGNVFSQTTICRFEALQLSFKNMNKLKPLLNKWLEEADSS [C61N] it is -0.107 ± 0.075. The figure for EDTPTSDDLEQFAKQFKQRRIKLGFTQADVGLALGTLYGNVFSQTTICRFEALQLSFKNMCKVKPLLNKWLEEADSS [L63V] is -0.263 ± 0.029.
